Measurements from patent US9617572B2, “Methods of producing 7-carbon chemicals via aromatic compounds” (INVISTA North America S.á r.l., priority 2012, dated 2017).

Key:
Type in all cases: biochemical
[1] = ω-Transaminase activity assay, reverse direction (7-aminoheptanoate to pimelate semialdehyde); details: cell free extract, 10 mM 7-aminoheptanoate, 10 mM pyruvate, pH 7.5, 25° C., 4 h, against empty vector control
Experimental: (§1) A sequence encoding an N-terminal His-tag was added to the genes from Chromobacterium violaceum, Pseudomonas syringae, Rhodobacter sphaeroides, and Vibrio Fluvialis encoding the ω-transaminases of SEQ ID NOs: 8, 10, 11 and 13, respectively (see FIGS. 7F and 7G) such that N-terminal HIS tagged ω-transaminases could be produced. Each of the resulting modified genes was cloned into a pET21a expression vector under control of the T7 promoter and each expression vector was transformed into a BL21[DE3] E. coli host. The resulting recombinant E. coli strains were cultivated at 37° C. in a 250 mL shake flask culture containing 50 mL LB media and antibiotic selection pressure, with shaking at 230 rpm. Each culture was induced overnight at 16° C. using 1 mM IPTG.
(§2) The pellet from each induced shake flask culture was harvested via centrifugation. Each pellet was resuspended and lysed via sonication. The cell debris was separated from the supernatant via centrifugation and the cell free extract was used immediately in enzyme activity assays.
Enzyme activity assays in the reverse direction (i.e., 7-aminoheptanoate to pimelate semialdehyde) were performed in a buffer composed of a final concentration of 50 mM HEPES buffer (pH =7.5), 10 mM 7-aminoheptanoate, 10 mM pyruvate and 100 μM pyridoxyl 5′ phosphate. Each enzyme activity assay reaction was initiated by adding cell free extract of the ω-transaminase gene product or the empty vector control to the assay buffer containing the 7-aminoheptanoate and incubated at 25° C. for 4 h, with shaking at 250 rpm. The formation of L-alanine from pyruvate was quantified via RP-HPLC.

[2] = ω-Transaminase activity assay, forward direction (pimelate semialdehyde to 7-aminoheptanoate); details: for acceptance of pimelate semialdehyde as substrate (formation of pyruvate from L-alanine, RP-HPLC): cell free extract, 10 mM pimelate semialdehyde, 10 mM L-alanine, pH 7.5, 25° C., 4 h, against empty vector control; for reversibility of ω-transaminase activity: accepts pimelate semialdehyde and synthesizes 7-aminoheptanoate: conclusion from reverse and forward direction assays
Experimental: as §1, §2
Enzyme activity in the forward direction (i.e., pimelate semialdehyde to 7-aminoheptanoate) was confirmed for the transaminases of SEQ ID NO 10, SEQ ID NO 11 and SEQ ID NO 13. Enzyme activity assays were performed in a buffer composed of a final concentration of 50 mM HEPES buffer (pH=7.5), 10 mM pimelate semialdehyde, 10 mM L-alanine and 100 μM pyridoxyl 5′ phosphate. Each enzyme activity assay reaction was initiated by adding a cell free extract of the ω-transaminase gene product or the empty vector control to the assay buffer containing the pimelate semialdehyde and incubated at 25° C. for 4 h, with shaking at 250 rpm. The formation of pyruvate was quantified via RP-HPLC.

[3] = ω-Transaminase activity assay (7-aminoheptanol to 7-oxoheptanol); details: for acceptance of 7-aminoheptanol as substrate (formation of L-alanine, RP-HPLC): cell free extract, 10 mM 7-aminoheptanol, 10 mM pyruvate, pH 7.5, 25° C., 4 h, against empty vector control; for acceptance of 7-oxoheptanol as substrate forming 7-aminoheptanol: concluded from reversibility of the ω-transaminase activity (Example 2)
Experimental: A nucleotide sequence encoding an N-terminal His-tag was added to the Chromobacterium violaceum, Pseudomonas syringae and Rhodobacter sphaeroides genes encoding the ω-transaminases of SEQ ID NOs: 8, 10 and 11, respectively (see FIGS. 7F and 7G) such that N-terminal HIS tagged ω-transaminases could be produced. The modified genes were cloned into a pET21a expression vector under the T7 promoter. Each expression vector was transformed into a BL21[DE3] E. coli host. Each resulting recombinant E. coli strain were cultivated at 37° C. in a 250 mL shake flask culture containing 50 mL LB media and antibiotic selection pressure, with shaking at 230 rpm. Each culture was induced overnight at 16° C. using 1 mM IPTG.
as §2
Enzyme activity assays in the reverse direction (i.e., 7-aminoheptanol to 7-oxoheptanol) were performed in a buffer composed of a final concentration of 50 mM HEPES buffer (pH=7.5), 10 mM 7-aminoheptanol, 10 mM pyruvate, and 100 μM pyridoxyl 5′ phosphate. Each enzyme activity assay reaction was initiated by adding cell free extract of the ω-transaminase gene product or the empty vector control to the assay buffer containing the 7-aminoheptanol and then incubated at 25° C. for 4 h, with shaking at 250 rpm. The formation of L-alanine was quantified via RP-HPLC.

[4] = Carboxylate reductase activity assay (N7-acetyl-7-aminoheptanoate to N7-acetyl-7-aminoheptanal); details: purified enzyme enhanced by sfp gene product, 2 mM N7-acetyl-7-aminoheptanoate, 1 mM ATP, 1 mM NADPH, pH 7.5, room temperature, 20 min, against empty vector control
Experimental: The activity of each of the N-terminal His-tagged carboxylate reductases of SEQ ID NOs: 3, 6, and 7 (see Example 4, and FIGS. 7B, 7E, and 7F) for converting N7-acetyl-7-aminoheptanoate to N7-acetyl-7-aminoheptanal was assayed in triplicate in a buffer composed of a final concentration of 50 mM HEPES buffer (pH=7.5), 2 mM N7-acetyl-7-aminoheptanoate, 10 mM MgCl2, 1 mM ATP, and 1 mM NADPH. The assays were initiated by adding purified carboxylate reductase and phosphopantetheine transferase or the empty vector control to the assay buffer containing the N7-acetyl-7-aminoheptanoate then incubated at room temperature for 20 min. The consumption of NADPH was monitored by absorbance at 340 nm.

Molecule	acceptance of 7-aminoheptanoate as substrate (formation of L-alanine from pyruvate, RP-HPLC) [1]	acceptance of pimelate semialdehyde as substrate (formation of pyruvate from L-alanine, RP-HPLC) [2]	reversibility of ω-transaminase activity: accepts pimelate semialdehyde and synthesizes 7-aminoheptanoate [2]	acceptance of 7-aminoheptanol as substrate (formation of L-alanine, RP-HPLC) [3]	acceptance of 7-oxoheptanol as substrate forming 7-aminoheptanol [3]	acceptance of N7-acetyl-7-aminoheptanoate as substrate (consumption of NADPH, absorbance at 340 nm) [4]
SEQ ID NO 11: Rhodobacter sphaeroides ω-transaminase, Genbank Accession No. ABA81135.1	accepted 7-aminoheptanote as substrate	accepted pimelate semialdehyde as substrate	accepted pimelate semialdehyde as substrate and synthesized 7-aminoheptanoate	accepted 7-aminoheptanol as substrate	accept 7-oxoheptanol as substrate and form 7-aminoheptanol	
SEQ ID NO 10: Pseudomonas syringae ω-transaminase, Genbank Accession No. AAY39893.1 (protein, listed as Pseudomonas syringae) MSANNPQTLEWQALSSEHHLAPFSDYKQLKEKGPRIITRAEGVYLWDSEGNKILDGMSGLWCVAIGYGREELADAASKQMRELPYYNLFFQTAHPPVLELAKAISDIAPEGMNHVFFTGSGSEGNDTMLRMVRHYWALKGQPNKKTIISRVNGYHGSTVAGASLGGMTYMHEQGDLPIPGVVHIPQPYWFGEGGDMTPDEFGIWAAEQLEKKILELGVENVGAFIAEPIQGAGGVIVPPDSYWPKIKEILSRYDILFAADEVICGFGRTSEWFGSDFYGLRPDMMTIAKGLTSGYVPMGGLIVRDEIVAVLNEGGDFNHGFTYSGHPVAAAVALENIRILREEKIVERVRSETAPYLQKRLRELSDHPLVGEVRGVGLLGAIELVKDKTTRERYTDKGAGMICRTFCFDNGLIMRAVGDTMIIAPPLVISFAQIDELVEKARTCLDLTLAVLQG	accepted 7-aminoheptanote as substrate	accepted pimelate semialdehyde as substrate	accepted pimelate semialdehyde as substrate and synthesized 7-aminoheptanoate	accepted 7-aminoheptanol as substrate	accept 7-oxoheptanol as substrate and form 7-aminoheptanol	
SEQ ID NO 8: Chromobacterium violaceum ω-transaminase, Genbank Accession No. AAQ59697.1 (protein, listed as Chromobacterium violaceum) MQKQRTTSQWRELDAAHHLHPFTDTASLNQAGARVMTRGEGVYLWDSEGNKIIDGMAGLWCVNVGYGRKDFAEAARRQMEELPFYNTFFKTTHPAVVELSSLLAEVTPAGFDRVFYTNSGSESVDTMIRMVRRYWDVQGKPEKKTLIGRWNGYHGSTIGGASLGGMKYMHEQGDLPIPGMAHIEQPWWYKHGKDMTPDEFGVVAARWLEEKILEIGADKVAAFVGEPIQGAGGVIVPPATYWPEIERICRKYDVLLVADEVICGFGRTGEWFGHQHFGFQPDLFTAAKGLSSGYLPIGAVFVGKRVAEGLIAGGDFNHGFTYSGHPVCAAVAHANVAALRDEGIVQRVKDDIGPYMQKRWRETFSRFEHVDDVRGVGMVQAFTLVKNKAKRELFPDFGEIGTLCRDIFFRNNLIMRACGDHIVSAPPLVMTRAEVDEMLAVAERCLEEFEQTLKARGLA	accepted 7-aminoheptanote as substrate		accepted pimelate semialdehyde as substrate and synthesized 7-aminoheptanoate	accepted 7-aminoheptanol as substrate	accept 7-oxoheptanol as substrate and form 7-aminoheptanol	
SEQ ID NO 3: Mycobacterium smegmatis carboxylate reductase, Genbank Accession No. ABK71854.1 (protein, listed as Mycobacterium smegmatis) MTSDVHDATDGVTETALDDEQSTRRIAELYATDPEFAAAAPLPAVVDAAHKPGLRLAEILQTLFTGYGDRPALGYRARELATDEGGRTVTRLLPRFDTLTYAQVWSRVQAVAAALRHNFAQPIYPGDAVATIGFASPDYLTLDLVCAYLGLVSVPLQHNAPVSRLAPILAEVEPRILTVSAEYLDLAVESVRDVNSVSQLVVFDHHPEVDDHRDALARAREQLAGKGIAVTTLDAIADEGAGLPAEPIYTADHDQRLAMILYTSGSTGAPKGAMYTEAMVARLWTMSFITGDPTPVINVNFMPLNHLGGRIPISTAVQNGGTSYFVPESDMSTLFEDLALVRPTELGLVPRVADMLYQHHLATVDRLVTQGADELTAEKQAGAELREQVLGGRVITGFVSTAPLAAEMRAFLDITLGAHIVDGYGLTETGAVTRDGVIVRPPVIDYKLIDVPELGYFSTDKPYPRGELLVRSQTLTPGYYKRPEVTASVFDRDGYYHTGDVMAETAPDHLVYVDRRNNVLKLAQGEFVAVANLEAVFSGAALVRQIFVYGNSERSFLLAVVVPTPEALEQYDPAALKAALADSLQRTARDAELQSYEVPADFIVETEPFSAANGLLSGVGKLLRPNLKDRYGQRLEQMYADIAATQANQLRELRRAAATQPVIDTLTQAAATILGTGSEVASDAHFTDLGGDSLSALTLSNLLSDFFGFEVPVGTIVNPATNLAQLAQHIEAQRTAGDRRPSFTTVHGADATEIRASELTLDKFIDAETLRAAPGLPKVTTEPRTVLLSGANGWLGRFLTLQWLERLAPVGGTLITIVRGRDDAAARARLTQAYDTDPELSRRFAELADRHLRVVAGDIGDPNLGLTPEIWHRLAAEVDLVVHPAALVNHVLPYRQLFGPNVVGTAEVIKLALTERIKPVTYLSTVSVAMGIPDFEEDGDIRTVSPVRPLDGGYANGYGNSKWAGEVLLREAHDLCGLPVATFRSDMILAHPRYRGQVNVPDMFTRLLLSLLITGVAPRSFYIGDGERPRAHYPGLTVDFVAEAVTTLGAQQREGYVSYDVMNPHDDGISLDVFVDWLIRAGHPIDRVDDYDDWVRRFETALTALPEKRRAQTVLPLLHAFRAPQAPLRGAPEPTEVFHAAVRTAKVGPGDIPHLDEALIDKYIRDLREFGLI						accepted N7-acetyl-7-aminoheptanoate as substrate
SEQ ID NO 13: Vibrio fluvialis ω-transaminase, Genbank Accession No. AEA39183.1 (protein, listed as Vibrio fluvialis) MNKPQSWEARAETYSLYGFTDMPSLHQRGTVVVTHGEGPYIVDVNGRRYLDANSGLWNMVAGFDHKGLIDAAKAQYERFPGYHAFFGRMSDQTVMLSEKLVEVSPFDSGRVFYTNSGSEANDTMVKMLWFLHAAEGKPQKRKILTRWNAYHGVTAVSASMTGKPYNSVFGLPLPGFVHLTCPHYWRYGEEGETEEQFVARLARELEETIQREGADTIAGFFAEPVMGAGGVIPPAKGYFQAILPILRKYDIPVISDEVICGFGRTGNTWGCVTYDFTPDAIISSKNLTAGFFPMGAVILGPELSKRLETAIEAIEEFPHGFTASGHPVGCAIALKAIDVVMNEGLAENVRRLAPRFEERLKHIAERPNIGEYRGIGFMWALEAVKDKASKTPFDGNLSVSERIANTCTDLGLICRPLGQSVVLCPPFILTEAQMDEMFDKLEKALDKVFAEVA	accepted 7-aminoheptanote as substrate	accepted pimelate semialdehyde as substrate	accepted pimelate semialdehyde as substrate and synthesized 7-aminoheptanoate			
